Data published in PMC11864179 (Science Advances, 2025).
Non-standard residues stand in square brackets, D forms with d. No end group written: not given here. *: point of attachment. Biotin = O=C1N[C@H]2[C@H](CS[C@H]2CCCCC(=O)*)N1; pS = N[C@@H](COP(=O)(O)O)C(=O)O

Target: T1, HTP-3–HIM-3 complex containing His6-tagged HTP-3 and wild-type HIM-3 (C. elegans, UniProt O01820 2-739; G5EBG0 1-291)
T1 sequence (looked up) 1: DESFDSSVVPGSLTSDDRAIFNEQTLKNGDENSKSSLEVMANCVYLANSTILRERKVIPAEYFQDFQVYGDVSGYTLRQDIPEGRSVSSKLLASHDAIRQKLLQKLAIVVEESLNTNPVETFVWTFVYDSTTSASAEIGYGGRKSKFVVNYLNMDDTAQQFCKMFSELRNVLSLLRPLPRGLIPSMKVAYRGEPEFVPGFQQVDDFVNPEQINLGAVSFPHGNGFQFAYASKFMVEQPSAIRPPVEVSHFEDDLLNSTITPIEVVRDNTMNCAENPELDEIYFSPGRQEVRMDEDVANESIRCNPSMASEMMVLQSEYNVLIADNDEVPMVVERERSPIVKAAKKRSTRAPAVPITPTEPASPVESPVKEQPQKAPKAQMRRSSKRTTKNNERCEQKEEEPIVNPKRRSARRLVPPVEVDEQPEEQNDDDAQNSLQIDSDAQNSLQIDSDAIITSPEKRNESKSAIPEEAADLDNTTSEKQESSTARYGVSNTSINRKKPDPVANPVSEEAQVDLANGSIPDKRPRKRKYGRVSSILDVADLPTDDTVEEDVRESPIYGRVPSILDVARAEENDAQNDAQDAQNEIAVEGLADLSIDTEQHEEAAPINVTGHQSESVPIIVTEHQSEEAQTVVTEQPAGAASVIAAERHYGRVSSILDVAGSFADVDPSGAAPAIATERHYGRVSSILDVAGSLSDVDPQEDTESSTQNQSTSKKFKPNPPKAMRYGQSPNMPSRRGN
T1 sequence (looked up) 2: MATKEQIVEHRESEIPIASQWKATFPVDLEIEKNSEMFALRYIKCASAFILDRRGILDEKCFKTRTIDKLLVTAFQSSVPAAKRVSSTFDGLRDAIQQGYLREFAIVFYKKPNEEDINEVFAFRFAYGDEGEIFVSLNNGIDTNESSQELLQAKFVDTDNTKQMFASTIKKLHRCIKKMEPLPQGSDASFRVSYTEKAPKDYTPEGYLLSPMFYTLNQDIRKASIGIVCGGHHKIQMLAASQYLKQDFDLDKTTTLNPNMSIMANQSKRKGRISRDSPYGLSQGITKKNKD
Experiment: pull-down

binding result: binds
Binder: Biotin-DDDLNDEEGDADQ[pS]IWGSDD [SYP-5 peptide spanning residues 528 to 547, phosphorylated at S541]
